Test results reported in the supplement of paper PMC10567573.

B1: TRAF3IP2 (parent)
chain: YGHDYPRAAYQQVIQPALPGQPLP
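Further: lentivirally expressed fusions sorted by FACS into six bins by GFP to DsRed ratio, PSI derived from sequencing read proportions per bin multiplied by bin number.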

Variants of: B1
Test: protein stability index of a GFP-peptide fusion (GPS, HEK-293T) (PSI 1-6); higher = more stable
Details: c terminus: a fixed tail appended
In the case of YGHIYPRAAYQQVIQPALPGQPLP, the protein stability index is reported as 2.1. With YGHKYPRAAYQQVIQPALPGQPLP the protein stability index was 2.7. In the case of YGHLYPRAAYQQVIQPALPGQPLP, the protein stability index is reported as 1.73. Work on YGHMYPRAAYQQVIQPALPGQPLP yielded a protein stability index of 1.66. YGHNYPRAAYQQVIQPALPGQPLP gave a protein stability index of 2.42. YGHPYPRAAYQQVIQPALPGQPLP showed a protein stability index of 3.33. YGHQYPRAAYQQVIQPALPGQPLP showed a protein stability index of 1.85. YGHRYPRAAYQQVIQPALPGQPLP gave a protein stability index of 2.21. Work on YGHSYPRAAYQQVIQPALPGQPLP yielded a protein stability index of 2.07. Variant YGHTYPRAAYQQVIQPALPGQPLP has a protein stability index of 2.13. For YGHVYPRAAYQQVIQPALPGQPLP, the protein stability index was 2.36. YGHWYPRAAYQQVIQPALPGQPLP gave a protein stability index of 2.08. For YGHYYPRAAYQQVIQPALPGQPLP, the protein stability index was 2.9. In the case of YGHDAPRAAYQQVIQPALPGQPLP, the protein stability index is reported as 4.22. YGHDCPRAAYQQVIQPALPGQPLP showed a protein stability index of 3.5. Work on YGHDDPRAAYQQVIQPALPGQPLP yielded a protein stability index of 4.01. In the case of YGHDEPRAAYQQVIQPALPGQPLP, the protein stability index is reported as 3.88. With YGHDFPRAAYQQVIQPALPGQPLP the protein stability index was 2.52. YGHDGPRAAYQQVIQPALPGQPLP showed a protein stability index of 3.78. For YGHDHPRAAYQQVIQPALPGQPLP, the protein stability index was 3.73. For YGHDIPRAAYQQVIQPALPGQPLP, the protein stability index was 3.43. YGHDKPRAAYQQVIQPALPGQPLP gave a protein stability index of 3.86. For YGHDLPRAAYQQVIQPALPGQPLP, the protein stability index was 3.58. YGHDMPRAAYQQVIQPALPGQPLP showed a protein stability index of 3.27. With YGHDNPRAAYQQVIQPALPGQPLP the protein stability index was 3.73. YGHDPPRAAYQQVIQPALPGQPLP showed a protein stability index of 3.99. YGHDQPRAAYQQVIQPALPGQPLP showed a protein stability index of 3.83. In the case of YGHDRPRAAYQQVIQPALPGQPLP, the protein stability index is reported as 3.49. With YGHDSPRAAYQQVIQPALPGQPLP the protein stability index was 4.1. YGHDTPRAAYQQVIQPALPGQPLP showed a protein stability index of 3.79. With YGHDVPRAAYQQVIQPALPGQPLP the protein stability index was 3.46. For YGHDWPRAAYQQVIQPALPGQPLP, the protein stability index was 3.66. YGHDYARAAYQQVIQPALPGQPLP showed a protein stability index of 2.44. Variant YGHDYCRAAYQQVIQPALPGQPLP has a protein stability index of 2.26. Work on YGHDYDRAAYQQVIQPALPGQPLP yielded a protein stability index of 3.52. For YGHDYERAAYQQVIQPALPGQPLP, the protein stability index was 2.82. Work on YGHDYFRAAYQQVIQPALPGQPLP yielded a protein stability index of 1.81. In the case of YGHDYGRAAYQQVIQPALPGQPLP, the protein stability index is reported as 3.41. YGHDYHRAAYQQVIQPALPGQPLP showed a protein stability index of 1.93. For YGHDYIRAAYQQVIQPALPGQPLP, the protein stability index was 1.69. Work on YGHDYKRAAYQQVIQPALPGQPLP yielded a protein stability index of 2.9. Variant YGHDYLRAAYQQVIQPALPGQPLP has a protein stability index of 1.73. YGHDYMRAAYQQVIQPALPGQPLP gave a protein stability index of 1.79. Variant YGHDYNRAAYQQVIQPALPGQPLP has a protein stability index of 2.55. With YGHDYQRAAYQQVIQPALPGQPLP the protein stability index was 2.27. YGHDYRRAAYQQVIQPALPGQPLP gave a protein stability index of 1.99. Work on YGHDYSRAAYQQVIQPALPGQPLP yielded a protein stability index of 2.6. For YGHDYTRAAYQQVIQPALPGQPLP, the protein stability index was 2.73. For YGHDYVRAAYQQVIQPALPGQPLP, the protein stability index was 1.56. YGHDYWRAAYQQVIQPALPGQPLP showed a protein stability index of 1.48. Work on YGHDYYRAAYQQVIQPALPGQPLP yielded a protein stability index of 2.96. YGHDYPAAAYQQVIQPALPGQPLP gave a protein stability index of 2.46. Work on YGHDYPCAAYQQVIQPALPGQPLP yielded a protein stability index of 2.44. With YGHDYPDAAYQQVIQPALPGQPLP the protein stability index was 3.34. YGHDYPEAAYQQVIQPALPGQPLP gave a protein stability index of 3.87. With YGHDYPFAAYQQVIQPALPGQPLP the protein stability index was 2.2. With YGHDYPGAAYQQVIQPALPGQPLP the protein stability index was 2.58. In the case of YGHDYPHAAYQQVIQPALPGQPLP, the protein stability index is reported as 2.36. YGHDYPIAAYQQVIQPALPGQPLP showed a protein stability index of 2.51. YGHDYPKAAYQQVIQPALPGQPLP gave a protein stability index of 2.18. In the case of YGHDYPLAAYQQVIQPALPGQPLP, the protein stability index is reported as 2.27. YGHDYPMAAYQQVIQPALPGQPLP showed a protein stability index of 2.27. YGHDYPNAAYQQVIQPALPGQPLP showed a protein stability index of 2.82. For YGHDYPPAAYQQVIQPALPGQPLP, the protein stability index was 2.41. In the case of YGHDYPQAAYQQVIQPALPGQPLP, the protein stability index is reported as 2.56. Variant YGHDYPSAAYQQVIQPALPGQPLP has a protein stability index of 2.65. Variant YGHDYPTAAYQQVIQPALPGQPLP has a protein stability index of 2.6. With YGHDYPVAAYQQVIQPALPGQPLP the protein stability index was 2.56. Work on YGHDYPWAAYQQVIQPALPGQPLP yielded a protein stability index of 2.41. In the case of YGHDYPYAAYQQVIQPALPGQPLP, the protein stability index is reported as 2.28. For YGHDYPRCAYQQVIQPALPGQPLP, the protein stability index was 1.94. For YGHDYPRDAYQQVIQPALPGQPLP, the protein stability index was 2.43. YGHDYPREAYQQVIQPALPGQPLP showed a protein stability index of 2.03. YGHDYPRFAYQQVIQPALPGQPLP showed a protein stability index of 2.94. YGHDYPRGAYQQVIQPALPGQPLP gave a protein stability index of 2.18. For YGHDYPRHAYQQVIQPALPGQPLP, the protein stability index was 3.06. Variant YGHDYPRIAYQQVIQPALPGQPLP has a protein stability index of 2.57. Work on YGHDYPRKAYQQVIQPALPGQPLP yielded a protein stability index of 2.14. YGHDYPRLAYQQVIQPALPGQPLP showed a protein stability index of 2.7. YGHDYPRMAYQQVIQPALPGQPLP gave a protein stability index of 1.76. Work on YGHDYPRNAYQQVIQPALPGQPLP yielded a protein stability index of 2.3. Work on YGHDYPRPAYQQVIQPALPGQPLP yielded a protein stability index of 2.35. Work on YGHDYPRQAYQQVIQPALPGQPLP yielded a protein stability index of 2.65. YGHDYPRRAYQQVIQPALPGQPLP gave a protein stability index of 3.2. With YGHDYPRSAYQQVIQPALPGQPLP the protein stability index was 1.93. YGHDYPRTAYQQVIQPALPGQPLP showed a protein stability index of 2.8. YGHDYPRVAYQQVIQPALPGQPLP gave a protein stability index of 2.59. For YGHDYPRWAYQQVIQPALPGQPLP, the protein stability index was 2.64. YGHDYPRYAYQQVIQPALPGQPLP showed a protein stability index of 2.24. With YGHDYPRACYQQVIQPALPGQPLP the protein stability index was 2.34. YGHDYPRADYQQVIQPALPGQPLP showed a protein stability index of 2.74. Work on YGHDYPRAEYQQVIQPALPGQPLP yielded a protein stability index of 2.38. Variant YGHDYPRAFYQQVIQPALPGQPLP has a protein stability index of 2.15. Work on YGHDYPRAGYQQVIQPALPGQPLP yielded a protein stability index of 2.45.
